For one molecule, Kd results are on record in patent EP2172481A1.

The experiment addresses oocyst extract. Briefly: antigen binding analysis on oocyst extract; method not stated.

B1: Di-kappa-body (protein)
chain: QVQLQQSGPELVKPGASVKMSCKASGYTFTVYIIHWLKQKPGQGLEWIGYINPYNDGTKYNEKFRGKATLTSDKSSSTAYMELSSLTSEDSAVYYCARFYYGSSSVFDYWGQGTTLTVSSGGSGGSDVVMTQTQKFMSTSVGDRVSVTCKASQNVGTNVAWYQQKPGQSPKALIYSASYRYSGVPDRFTGSGSGTDFTLTISNVQSEDLAEYFCQQYNSYPLTFGAGTKLELKRTVAAPSVFIFPPSDEQLKSGTASVVCLLNNFYPREAKVQWKVDNALQSGNSQESVTEQDSKDSTYSLSSTLTLSKADYEKHKVYACEVTHQGLSSPVTKSFNRGEC
For B1, the Kd came out at 0.55 nM.

In general, Kd refers to a measure of binding affinity in units of concentration.
